Laboratory results taken from US20240141364.

Experiments:
Assay in all cases: cell_activity
[1] = test system: SB03758 degron-A(EAAAK)3A-ZF10-minKRAB (synthetic construct); details: mCherry increase with 1 uM pomalidomide vs no drug (release of repression); U87-MG
[2] = test system: SB03759 degron-A(EAAAK)3A-ZF10-1-minKRAB (synthetic construct); details: mCherry increase with 1 uM pomalidomide vs no drug (release of repression); U87-MG; text describes the reporter as SEQ ID NO 56 core promoter with four …
[3] = test system: SB03937 ZF10-HDAC4-ecpd-degron (synthetic construct); details: mCherry increase with 1 uM pomalidomide vs no drug; represses without drug; U87-MG
[4] = test system: SB03936 degron-A(EAAAK)3A-HDAC4-ZF10-1 (synthetic construct); details: mCherry increase with 1 uM pomalidomide vs no drug; represses without drug; U87-MG

Measured: activity

Chain of SB03758 degron-A(EAAAK)3A-ZF10-minKRAB (synthetic construct) (chain, as listed by the source): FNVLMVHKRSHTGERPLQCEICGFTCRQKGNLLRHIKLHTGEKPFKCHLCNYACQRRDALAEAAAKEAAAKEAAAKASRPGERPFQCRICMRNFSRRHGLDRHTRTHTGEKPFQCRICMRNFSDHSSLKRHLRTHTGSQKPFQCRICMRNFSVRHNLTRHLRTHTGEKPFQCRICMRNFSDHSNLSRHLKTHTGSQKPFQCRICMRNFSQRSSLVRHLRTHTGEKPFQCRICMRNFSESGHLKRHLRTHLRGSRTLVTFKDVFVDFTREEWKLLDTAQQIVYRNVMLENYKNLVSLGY
Chain of SB03936 degron-A(EAAAK)3A-HDAC4-ZF10-1 (synthetic construct) (chain, as listed by the source): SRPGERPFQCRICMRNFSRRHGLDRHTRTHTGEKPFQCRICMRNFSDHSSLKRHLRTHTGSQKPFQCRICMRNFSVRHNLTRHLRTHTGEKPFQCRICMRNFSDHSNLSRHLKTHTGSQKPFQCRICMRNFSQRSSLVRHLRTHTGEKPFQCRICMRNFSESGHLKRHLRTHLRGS
Chain of SB03759 degron-A(EAAAK)3A-ZF10-1-minKRAB (synthetic construct) (chain, as listed by the source): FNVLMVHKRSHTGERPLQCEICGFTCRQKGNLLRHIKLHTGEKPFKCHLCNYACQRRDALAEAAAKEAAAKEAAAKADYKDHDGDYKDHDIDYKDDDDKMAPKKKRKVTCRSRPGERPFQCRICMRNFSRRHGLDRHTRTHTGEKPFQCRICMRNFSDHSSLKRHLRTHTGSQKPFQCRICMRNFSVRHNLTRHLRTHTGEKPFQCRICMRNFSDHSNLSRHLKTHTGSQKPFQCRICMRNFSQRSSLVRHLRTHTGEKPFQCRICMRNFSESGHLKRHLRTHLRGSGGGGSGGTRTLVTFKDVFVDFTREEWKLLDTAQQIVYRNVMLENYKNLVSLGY

CGGGTTTCGTAACAATCGCATGAGGATTCGCAACGCCTTCGGCGTAGCCGATGTCGCGCTCCCGTCTCAGTAAAGGTCGGCGTAGCCGATGTCGCGCAATCGGACTGCCTTCGTACGGCGTAGCCGATGTCGCGCGTATCAGTCGCCTCGGAACGGCGTAGCCGATGTCGCGCATTCGTAAGAGGCTCACTCTCCCTTACACGGAGTGGATAACTAGTTCTAGAGGGTATATAATGGGGGCCA (double strand) [4xZF10-1 binding sites + core promoter (mCherry reporter)]
> 4 fold: all assays above
